In patent US20260209316A1:

Legend:
[1] = target: full-length Sudan GP (GPFL) (Sudan virus (SUDV)) (UniProt Q7T9D9); assay: BLI, Fab, pH 5.3
[2] = target: full-length Sudan GP (GPFL) (Sudan virus (SUDV)) (UniProt Q7T9D9); assay: BLI, Fab, pH 7.4
[3] = target: thermolysin-cleaved SUDV GP (GP(S)THL) (Sudan virus (SUDV)) (UniProt Q7T9D9); assay: BLI, Fab, pH 5.3
[4] = target: thermolysin-cleaved SUDV GP (GP(S)THL) (Sudan virus (SUDV)) (UniProt Q7T9D9); assay: BLI, Fab, pH 7.4

B1: Fab generated from 246S (Fab, V domains shown)
VH: QVQLVQSGAEVKKPGSSVKVSCKASGDTFSTYAITWVRQAPGQGLEWMGRIIPILGVTNYAQKFQGRVTFTADKSTITAYLELVNLRSEDTAVYYCTRDGYGGRDLLLNYYWGQGTLVTVSS
VL: EIVLTQSPGLLFWFPGERATLSCRASQSVSSSKLAWYQQKPGQAPRLLIYGASSRAPGIPDRFSGSGSGTDFTLTINRLEPEDFAVYFCQQYGSAQWTFGQGTKVDFK
Question: What does the source list for B1?
Answer: Kd [1]: 34.2 nM; koff [1]: 0.000384 s⁻¹; kon [1]: 11200 M⁻¹ s⁻¹; Kd [2]: 23.2 nM; koff [2]: 0.000493 s⁻¹; kon [2]: 21200 M⁻¹ s⁻¹

B2: Fab generated from 291S (Fab, V domains shown)
VH: QVQLQESGPGLVKPSQTLSLTCTVSGGSFSSGFYWSWIRQRPGKGLEWVGYTYYSGSTYYNPSLQSRVTISVDTSKNQFSLNLSSVTAADTAVYHCARADYGGLFDYWGQGILVTVSS
VL: QSVLTQPSSLSASPGASASLTCTLRSGINVGTYRIFWYQQKPGSPPQFLLRYNSDSDKQQGSGVPSRFSGSKDASANAGILLISGLQSEDEADYYCMIWHTSAWVFGGGTKLTVL
Question: What does the source list for B2?
Answer: Kd [3]: 0.67 nM; koff [3]: 0.000166 s⁻¹; kon [3]: 248000 M⁻¹ s⁻¹; Kd [4]: 0.19 nM; koff [4]: 5.1e-05 s⁻¹; kon [4]: 264000 M⁻¹ s⁻¹
